Measured values reported in publication PMC10978878 (Nature Communications, 2024).

Columns and labels:
[1] = target: BA.2.12.1 spike, recombinant trimer that retains the native sequence (SARS-CoV-2, UniProt P0DTC2); assay: cryo-EM structure; conditions: both partners purified
[2] = target: BA.4 spike, recombinant trimeric S-twin-Strep, prefusion stabilized (SARS-CoV-2, UniProt P0DTC2); assay: cryo-EM structure; conditions: both partners purified

B1: SD1-2 Fab (Fab, V domains shown)
VH: QVQLVQSGPGLVKPSQTLSLTCSVSGDSISSGTYYWSWIRLPAGQGLEWIGRVHSSGSTSYNPSLKSRVTISVDTSKNNFSLKLSSVTAADTAVYYCVRLDNCSAGYCHAFDIWGQGTMVTVSS
VL: QSVLTQPASVSGSPGQSITISCTGTSSDVGSYNLVSWYQQHPGKAPKVMIYEVSKWPSGVSNRFSGSKSGNTASLTISGLQAEDEADYYCCSYAGSGTYVFGTGTKVTVL
For B1, the “stoichiometry N” value [1] was 3 Fab per spike trimer.

B2: SD1-3 Fab (Fab, V domains shown)
VH: QVQLVESGGGLVQPGGSLRLSCTASGVTFSSYAMSWVRQAPGKGLEWVSGISGSGDSTYYADSVKGRFTISRDNSKNTLYLQMNSLRVEDTAVYYCATHYCSGGSCPFDYWGQGTLVTVSS
VL: PSALTQPPSVSVSPGQTASITCSGDKLGNKYAYWYQQKPGQSPVLVIFQDTMRPSGIPERFSASNSGNTATLTISGTQSIDEADYYCQAWDSNTAVFGGGTKLTVL
In the case of B2, the “stoichiometry N” value [1] is reported as 3 Fab per spike trimer.

B3: SD1-1 Fab (Fab, V domains shown)
VH: QVQLVESGPGLVKPSETLSLTCSVSGGSIDNFYWSWIRQPPGKGLEWIGNIYYGGSGNYNPSLKSRVTISVDTSKNQVSLKLRSVTAADTAVYYCARDSVWYTGSYGLIYWGPGTLVTVSS
VL: SVVTQPASVSGSPGQSITISCTGTSSDVGSYNLVSWFQQHPGKAPKLMIYEVTKRPSGISNRFSGSKSGNTASLTISRLQAEDEADYYCCSYAGSSTVVFGGGTKLTVL
With B3 the “stoichiometry N” value [2] was 3 Fab per spike trimer.
